US20120269826A1

Biological target: CD3/TCR complex on mouse T cells (mouse) (UniProt P22646)
Experiment: cell-based or functional assay

Chain of UniProt P22646 (P22646 22-189, chain 1 of 4): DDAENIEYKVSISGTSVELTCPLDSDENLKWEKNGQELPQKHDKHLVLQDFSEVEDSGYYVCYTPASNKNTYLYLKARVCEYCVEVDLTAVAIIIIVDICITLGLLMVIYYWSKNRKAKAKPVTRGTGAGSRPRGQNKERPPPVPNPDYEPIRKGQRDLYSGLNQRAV
Chain of UniProt P22646 (P11942 23-182, chain 2 of 4, further chain): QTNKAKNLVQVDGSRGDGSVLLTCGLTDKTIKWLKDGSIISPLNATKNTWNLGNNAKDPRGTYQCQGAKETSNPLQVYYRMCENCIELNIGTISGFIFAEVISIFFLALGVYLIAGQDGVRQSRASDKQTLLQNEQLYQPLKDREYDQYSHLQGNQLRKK
Chain of UniProt P22646 (P04235 22-173, chain 3 of 4, further chain): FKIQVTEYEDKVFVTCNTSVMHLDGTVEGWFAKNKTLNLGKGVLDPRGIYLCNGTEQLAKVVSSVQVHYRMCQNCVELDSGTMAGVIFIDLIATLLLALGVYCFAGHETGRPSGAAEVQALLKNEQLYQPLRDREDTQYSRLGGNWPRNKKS
Chain of UniProt P22646 (P24161 22-164, chain 4 of 4, further chain): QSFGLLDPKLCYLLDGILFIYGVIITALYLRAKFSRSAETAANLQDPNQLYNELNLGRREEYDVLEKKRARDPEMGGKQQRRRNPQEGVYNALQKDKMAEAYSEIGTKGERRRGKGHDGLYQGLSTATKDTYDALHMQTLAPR

Q: What does the source list for “anti-CD3 mAb F(ab′)2 (hamster anti-mouse CD3 mAb, clone 145-2C11)”?
A: CD3/TCR-complex expression 24 hr after dose 4, 5 µg dose, Study A (% of baseline): 50; CD3/TCR-complex expression 24 hr after dose 4, 25 µg dose, Study A (% of baseline): 12; percentage of CD3/TCR-complex modulation after the fourth dose, 1 µg (4×/72 hr) dose regimen, BALB/c mice: 19.7%; percentage of CD3/TCR-complex modulation after the fourth dose, 2 µg (4×/72 hr) dose regimen, BALB/c mice: 30.3%
